Experimental data from PMC9576799, “Discovery of small molecule inhibitors that effectively disrupt IQGAP1-Cdc42 interaction in breast cancer cells” (Scientific Reports, 2022).

Columns and labels:
GST-IQGAP1-C = target: T1, GST-IQGAP1-C (Homo sapiens, UniProt P46940); test: GST pull-down assay and Western blotting; type: binding; details: 2 h at 4 °C, Western blot with anti-Cdc42
T1 construct: the C-terminal half of IQGAP1 (comprising amino acids 864–1657) containing a GST-tag; made in house; host or cells: Escherichia coli BL-21
T1 sequence (P46940 864-1657): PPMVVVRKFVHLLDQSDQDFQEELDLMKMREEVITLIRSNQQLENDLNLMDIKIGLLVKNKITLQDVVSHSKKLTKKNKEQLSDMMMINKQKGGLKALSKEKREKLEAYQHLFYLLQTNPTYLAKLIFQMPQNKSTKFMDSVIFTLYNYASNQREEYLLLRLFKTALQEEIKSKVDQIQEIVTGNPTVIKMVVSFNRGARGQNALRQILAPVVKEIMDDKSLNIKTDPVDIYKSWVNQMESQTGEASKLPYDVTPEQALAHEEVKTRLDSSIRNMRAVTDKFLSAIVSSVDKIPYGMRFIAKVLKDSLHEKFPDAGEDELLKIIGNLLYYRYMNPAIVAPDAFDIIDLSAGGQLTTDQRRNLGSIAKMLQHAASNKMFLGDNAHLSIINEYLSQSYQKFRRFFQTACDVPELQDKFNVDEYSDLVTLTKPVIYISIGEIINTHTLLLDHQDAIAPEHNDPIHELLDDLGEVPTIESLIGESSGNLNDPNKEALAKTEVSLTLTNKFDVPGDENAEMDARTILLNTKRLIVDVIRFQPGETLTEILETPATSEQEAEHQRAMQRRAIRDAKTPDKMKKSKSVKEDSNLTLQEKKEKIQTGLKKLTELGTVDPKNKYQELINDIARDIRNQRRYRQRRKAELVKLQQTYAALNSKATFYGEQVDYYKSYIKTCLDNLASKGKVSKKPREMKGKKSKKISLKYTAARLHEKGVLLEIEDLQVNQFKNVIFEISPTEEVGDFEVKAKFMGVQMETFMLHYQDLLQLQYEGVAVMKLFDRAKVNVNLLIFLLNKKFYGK
Experimental: (a) Schematic representation of IQGAP1 protein. The C-terminal half of IQGAP1 (amino acids 864–1657) was used in the HTRF assay. (b) GST pull-down assay. GST-IQGAP1-C was incubated with His-tagged Cdc42-N17 or Cdc42-Q61L for 2 h at 4 °C. GST alone was incubated with Cdc42-Q61L as the negative control. Complexes were isolated using glutathione-Sepharose and resolved by SDS-PAGE. The gel was cut at 70 kDa. The upper part of the gel was stained with Coomassie blue. The lower portion of the gel was transferred to PVDF membrane and probed with anti-Cdc42 antibodies. (c) Scheme of the HTRF assay in 384–well format showing fluorescent labeled GST-IQGAP1-C (donor Europium cryptate, K) and His-Cdc42-Q61L (acceptor XL665). (d) Time resolved fluorescence was detected at 615 and 665 nm on the Biotek Synergy using recombinant proteins. The Y-axis represents the ratio of acceptor to donor emission wavelength multiplied by 10,000. The means and standard errors of two replicates are shown. The green bar (Buffer) indicates samples without His-Cdc42. […] No single label is printed for the pair, so the substance label joins the two printed names.

[1] = target: C-terminal half of IQGAP1 (amino acids 864–1657); design: method as in PMID 17984089; details: scintillation proximity assay; read-out: equilibrium dissociation constant (Kd) of Cdc42-Q61L binding to IQGAP1 fragment; cited from earlier work

binding to IQGAP1 in GST pulldown (GST-IQGAP1-C) | Substance | Kd [1]
no detectable binding | Cdc42-N17: dominant negative Cdc42 mutant, negative control | 
binds to the C-terminal region of IQGAP1 | Cdc42-Q61L: constitutively active Cdc42 mutant construct that binds IQGAP1 with high affinity | 24 ± 4 nM
